Assay results taken from patent US20240285785A1, “TARGETING SORTILIN” (priority 2022, published 2024).
*1 amine or outer side, *2 acyl side, *3 side chain or, on linkers, in order; H or OH if unused. Bridges are numbered along the chain shown (N, C = ends). Side-chain parts run from the residue outwards. [ ]: non-standard residue; d: D form. VCPAB = valine-citrulline p-aminobenzylcarbamate linker, CC(C)[C@H](N[*:1])C(=O)N[C@@H](CCCNC(N)=O)C(=O)Nc1ccc(COC(=O)[*:2])cc1; tBuAla = CC(C)(C)C[C@H](N)C(=O)O; MMAE = monomethyl auristatin E; Tle = CC(C)(C)[C@H](N)C(=O)O; Nle = CCCC[C@H](N)C(=O)O; βAla = NCCC(=O)O; Sar = CNCC(=O)O

Columns and labels:
[1] = Murine plasma stability assay; assay type: in vitro ADME; details: mouse, 37° C., read-out: Murine plasma stability assay, T1/2
Protocol: Frozen plasma was thawed at 37° C. and centrifuged at 4000 rpm to remove any clots and transferred to 96-well reaction plates by WuXi AppTec. Test compounds were added to the reaction plate at a final concentration of 2 μM and either stopped immediately or incubated at 37° C. for 5 minutes, 10 minutes, 30 minutes, 60 minutes, or 120 minutes. At the end of incubation, stop solution consisting of 200 ng/mL tolbutamide and 200 ng/mL labetalol in ACN was added to precipitate protein and mixed thoroughly. Samples were then transferred to a bioanalysis plate and shaken for 10 minutes prior to HPLC-MS/MS analysis of percent remaining compound.

[2] = Murine hematotoxicity assay; assay type: in vivo, BALB/c mice; details: 3 mg/kg i.v. QW×4, compared to vehicle or MMAE treatment
Protocol: Murine hematotoxicity experiments were conducted at Charles River Laboratories and the care and use of animals was conducted in accordance with the regulations of the Association for Assessment and Accreditation of Laboratory Animal Care (AAALAC). Wild type BALB/c, female, 7-8 weeks, weighing approximately 18-22 g were randomized and dosed intravenously with control or test articles at a QW×4 schedule. Dosing volume was adjusted based on body weight and was administered at 10 mL/Kg. PDCs were dissolved in 25 mM Histidine 10% sucrose pH 7 and 3 mg/kg was administered. Free MMAE payload was also tested, and similarly dissolved in 25 mM Histidine 10% sucrose pH 7 and administered to the mice at a dose of […] by i.v. injection at a QW×4 schedule. 3 days following each dose, 150 μL of whole blood was collected via submandibular method and placed in K2 EDTA tubes stored on ice. Blood neutrophil counts were performed on the day of collection by IDEXX labs. Body weights were recorded twice a week until study endpoint.
As outlined in the material and methods of Example 1, wild type BALB/c, female, 7-8 weeks, weighing approximately 18-22 g were randomized and dosed intravenously with control or test articles at a QW×4 schedule. Dosing volume was adjusted based on body weight and was administered at 10 ml/Kg. […] Free MMAE payload was also tested, and similarly dissolved in 25 mM Histidine 10% sucrose pH 7 and administered to the mice at a dose of […] by i.v. injection at a QW×4 schedule. 3 days following each dose, 150 μL of whole blood was collected via submandibular method and placed in K2 EDTA tubes stored on ice. Blood neutrophil counts were performed on the day of collection by IDEXX labs. Body weights were recorded twice a week until study endpoint.

[3] = tested on: MDA-MB-231 tumor cells; test: MDA-MB-231 murine xenograft efficacy model; assay type: in vivo, BALB/c Nude mice
Protocol: Murine xenograft experiments were conducted at WuXi AppTec and/or Charles River Laboratories and the care and use of animals was conducted in accordance with the regulations of the Association for Assessment and Accreditation of Laboratory Animal Care (AAALAC). MDA-MB-231 tumor cells (ATCC, Manassas, VA, cat #HTB-26) were grown and maintained in L15 medium supplemented with 10% heat inactivated fetal bovine serum, 1% Antibiotic-Antimycotic, and L-glutamine (2 mM) at 37° C. in an atmosphere in 5% CO2, 95% air. BALB/c Nude, female, 6-8 weeks, weighing approximately 18-22 g were purchased from Vital River Laboratory Animal Technology Co., LTD. Mice were inoculated subcutaneously at the right flank with MDA-MB-231 tumor cells (e.g., triple negative breast cancer cells) (10×10^6) in 0.2 mL of PBS with Matrigel (1:1) for tumor development. Animals were randomized and treatment was started when the average tumor volume reached approximately 150-200 mm^3 for the efficacy study. Dosing volume was adjusted based on body weight and was administered at 10 ml/Kg. […] Free MMAE payload was also tested, and similarly dissolved in 25 mM Histidine 10% sucrose pH 7 and one or more of the following doses, 0.6, 0.06 mg/kg, were administered to the mice i.v. at a QW×4 schedule. Tumor sizes were measured twice weekly in two dimensions using a caliper, and the volume in mm^3 calculated using the formula: V=0.5 a×b^2, where a and b are the long and short diameters of the tumor, respectively. TGI was calculated for each group using the formula: TGI (%)=[1−(Ti−T0)/(Vi−V0)]×100; where Ti is the average tumor volume of a treatment group on a given day, T0 is the average tumor volume of the treatment group on the first day of treatment, Vi is the average tumor volume of the vehicle control group on the same day with Ti, and V0 is the average tumor volume of the vehicle group on the first day of treatment.

[4] = molecular target: T1, Human SORT1 (78-755)-His (Acrobiosystems) (human, UniProt Q99523 78-755); test: SPR (Biacore 8K), SORT1 amine-coupled to CM5 chip, PDC as analyte, 1:1 kinetic model
T1 construct: range 78-755; Amine-coupled to a CM5 chip in the SPR assay; not shown: His tag
T1 sequence (looked up): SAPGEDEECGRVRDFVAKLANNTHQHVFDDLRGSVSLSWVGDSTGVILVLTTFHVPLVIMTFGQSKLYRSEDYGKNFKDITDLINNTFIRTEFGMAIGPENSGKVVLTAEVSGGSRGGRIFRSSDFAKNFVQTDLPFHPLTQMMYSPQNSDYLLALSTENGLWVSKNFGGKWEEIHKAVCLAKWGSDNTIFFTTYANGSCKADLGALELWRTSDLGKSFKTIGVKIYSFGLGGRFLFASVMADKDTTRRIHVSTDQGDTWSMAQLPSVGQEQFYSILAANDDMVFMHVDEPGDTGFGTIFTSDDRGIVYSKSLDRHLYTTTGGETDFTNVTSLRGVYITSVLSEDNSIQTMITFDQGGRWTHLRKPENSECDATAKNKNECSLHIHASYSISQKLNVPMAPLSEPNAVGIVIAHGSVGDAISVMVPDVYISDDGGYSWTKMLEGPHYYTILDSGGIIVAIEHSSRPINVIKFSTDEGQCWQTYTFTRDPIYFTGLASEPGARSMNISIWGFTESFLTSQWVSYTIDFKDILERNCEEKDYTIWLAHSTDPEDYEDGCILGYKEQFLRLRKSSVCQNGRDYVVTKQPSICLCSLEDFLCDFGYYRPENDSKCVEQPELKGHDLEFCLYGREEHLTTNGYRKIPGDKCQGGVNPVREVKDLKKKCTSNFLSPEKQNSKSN
Protocol: SPR analysis was performed on Series S CM5 chips (Cytiva) using a Biacore 8K instrument (Cytiva). Sensorgrams were double-referenced by subtracting the response on both a reference flow cell and a blank sample. Human SORT1 (78-755)-His (Acrobiosystems) was diluted to 60 μg/mL in 10 mM sodium acetate pH 4.5 buffer and immobilized onto Series S CM5 chips using amine coupling at a flow rate of 10 μL/min for 45 s. The final immobilization level of SORT1 was between 2200-2600 RU.
For the multi-cycle kinetics analysis runs, a running buffer of 1×PBS pH 7.4, 0.005% Tween-20 was used. Five start-up cycles and a blank cycle preceded each analysis run. The runs were performed by sequential injections of analyte (0-25 nM) with a 150 seconds (s) association and 300 s dissociation at a flow rate of 30 μL/min, followed by a regeneration with 2 M MgCl₂ for 200 s at a flow rate of 10 μL/min. The kinetic rate constants (kₐ and kd) and the equilibrium binding constant (Kd) were calculated using a 1:1 kinetic binding model on the Biacore Insight Evaluation Software (Cytiva).

CC[C@H](C)[C@@H]([C@@H](CC(=O)N1CCC[C@H]1[C@H](OC)[C@@H](C)C(=O)N[C@H](C)[C@@H](O)c1ccccc1)OC)N(C)C(=O)[C@@H](NC(=O)[C@H](C(C)C)N(C)C(=O)OCc1ccc(NC(=O)[C@H](CCCNC(N)=O)NC(=O)[C@@H](NC(=O)CCCC(=O)NCCC(=O)N(C)CC(=O)N(C)CC(=O)N(C)CC(=O)N(C)CC(=O)N[C@@H](C)C(=O)N2CCC[C@H]2C(=O)N[C@@H](CCCNC(=N)N)C(=O)N[C@@H](Cc2c[nH]c3ccccc23)C(=O)N[C@@H](CC(=O)O)C(=O)N[C@@H](C)C(=O)N2CCC[C@H]2C(=O)N[C@@H](CC(C)C)C(=O)N[C@@H](CCCNC(=N)N)C(=O)N[C@@H](CC(=O)O)C(=O)N2CCC[C@H]2C(=O)N[C@@H](C)C(=O)N[C@@H](CC(C)C)C(=O)N[C@@H](CCCNC(=N)N)C(=O)N[C@@H](CCC(N)=O)C(=O)N[C@H](C(=O)N[C@@H](CC2CCC2)C(=O)O)C(C)(C)C)C(C)C)cc1)C(C)C [Arb-SAR-Q15-PDC]
half-life at 2 μM [1]: 49.7 min | blood neutrophil counts [2]: reduced neutrophil counts | tumor growth inhibited relative to vehicle ([3]; 3 mg/kg i.v. QW×4, day 22 (Example 8)): 98% | body weight loss ([3]; Example 8, PDC 3 mg/kg, free MMAE 0.6 mg/kg, i.v. QW×4): body weight loss tracked each other

B1: Arb_cyclic_G23-PDC (peptide)
peptide: Ac-RWCENK([Sar-Sar-Sar-Sar-βAla-VCPAB-MMAE])R[Nle]FTCRQ[Tle][tBuAla]-OH
modifications: disulfide 3-11
notes: C-term COOH
Kd [4]: 0.89 nM
